Test results taken from paper PMC6745792, “A novel biotinylated nanobody-based blocking ELISA for the rapid and sensitive clinical detection of porcine epidemic diarrhea virus” (Journal of Nanobiotechnology, 2019).

Assays:
[1] = target: T1, PEDV N protein (recombinant nucleocapsid protein of porcine epidemic diarrhea virus) (Porcine epidemic diarrhea virus, strain …, UniProt Q07499); test: SPR; Biacore 3000; purified PEDV N protein (5 µg/ml) amine-coupled to a CM5 chip; Nb1, Nb2, Nb3 flowed at 3 µg/ml each; HBS-EP (10 mM HEPES pH 7.4, 150 mM NaCl, 3 mM EDTA, 0.005% P20), room temperature; 1:1 Langmuir model; conditions: both partners purified
T1 construct: also called PEDV N antigen; N-His-tagged recombinant protein; source: recombinant, purified ('highly pure')

[2] = target: T2, PEDV N protein (recombinant nucleocapsid protein of porcine epidemic diarrhea virus) (Porcine epidemic diarrhea virus, strain …, UniProt Q07499); test: SPR; Biacore 3000; purified PEDV N protein (5 µg/ml) amine-coupled to a CM5 chip; Nb1, Nb2 and Nb3 each flowed over at 3 µg/ml; HBS-EP (10 mM HEPES pH 7.4, 150 mM NaCl, 3 mM EDTA, 0.005% P20); room temperature; 1:1 Langmuir model
T2 construct: also called N-His recombinant protein; N-His-tagged recombinant protein; source: recombinant, purified

B1: Nb1 (anti-PEDV N protein nanobody) (VHH)
VHH: QVQLQESGGGSVQSGGSLRLSCAVSGYTYSGLCMGWFRQAPGREREGVATIDTDGYTSYTDSVKGRFTISRDNAKNTLLLQMNSLQPEDTAMYYCAADPRTAIYCSTSRSAKWYNHWGQGTQVTVSS
B1 showed a kon [1] of 197000 M⁻¹ s⁻¹.

B2: Nb1 (VHH)
VHH: B1 VHH
notes: VHH from a Bactrian camel immunised with PEDV N protein, selected by phage display
Binder B2 has a koff [2] of 0.00206 s⁻¹.
